Test results as given in patent US7592168B2, “Cephalosporin C acylase mutant and method for preparing 7-ACA using same” (Sandoz AG, priority 2003, dated 2009).

Assays:
[1] = Specific activity of CPC acylase to CPC (PDAB colorimetric assay); format: biochemical; settings: purified enzyme
Description: Each E. coli transformant was inoculated into 3 ml of a LB medium (1% Bacto-Tryptone, 0.5% Yeast Extract, 0.5% NaCl) containing 25 μg/ml of chloramphenicol and cultured at 30° C., 200 rpm for 16 hr with vigorous shaking. 50 μl of the culture solution was transformed to 50 ml of a new LB medium containing […] of chloramphenicol and further cultured at 25° C., 200 rpm for 48 hr with vigorous shaking. The culture solution was subjected to centrifugation at 4° C., 8,000 rpm for 10 min to separate a precipitate and the precipitate washed twice with 0.1 M Tris-HCl buffer solution (pH 8.0). This precipitate was suspended in 5 ml of the same buffer solution and subjected to ultra-sonication at 4° C. for 10 min. […]
The enzyme activity of CPC acylase mutant to CPC was measured according to the method described by Park et al. with minor modifications as follows (Park, et al., Kor. J. Appl. Microbiol. Biotechnol. 23: 559-564, 1995). A substrate solution was prepared by dissolving CPC (purity 74.2%; CJ Corp., Korea) in 0.1 M Tris-HCl buffer solution (pH 8.0) at a concentration of 20 mg/ml and adjusting pH to 8 with 1 N NaOH. […] After the reaction, the mixture (200 μl) of 50 mM NaOH and 20% glacial acetic acid (1:2) was added thereto to stop the reaction. 200 μl of the supernatant recovered from the reaction mixture by centrifugation was mixed with 40 μl of 0.5% (w/v) PDAB (p-dimethylaminobenzaldehyde; Sigma, USA) dissolved in a methanol and the reaction mixture was incubated at 37° C. for 10 min. After the reaction, the absorbance of reaction mixture was measured at 415 nm and quantified by comparing with a calibration curve of standard material. At this time, 1 unit has been defined as the amount of enzyme capable to produce 1 μmole of 7-ACA from CPC per minute. Meanwhile, the specific activity of CPC acylase mutant for CPC was determined by measuring the amount of protein remaining in the enzyme solution according to the method described by Bradford (Bradford, M., Anal. Biochem. 72: 248-254, 1976) and representing it as an active unit corresponding to 1 mg of protein. The reactivity of CPC acylase mutant to CPC was determined by the following steps of adding the same amount of protein to a reaction mixture, performing an enzyme reaction for a fixed time, measuring the amount of 7-ACA produced in the reaction mixture, and representing it as a relative value. The end-product inhibition by 7-ACA was determined by adding a protein corresponding to the same active unit to a reaction mixture, performing an enzyme reaction for a fixed time; measuring the amount of 7-ACA produced in the reaction mixture, and representing it as a relative value.

[2] = One-step conversion of CPC into 7-ACA (HPLC); format: biochemical; settings: 50 mM CPC, pH 8.5, 25° C., 1 hr, purified enzyme
Description: E. coli BL21(DE3) transformant containing each one of pET29-TnS5αβ and pET29-S12 plasmids of Example <3-2> was cultivated in 5 l of a LB broth containing 20 μg/ml of kanamycin and 2% lactose at 25° C., 200 rpm for 72 hr with vigorous shaking. Further, E. coli MC1061(pBCPC) containing the wild-type CPC acylase gene was also cultivated in 10 l of a LB broth containing 25 μg/ml of chloramphenicol at 25° C., 200 rpm for 48 hr with vigorous shaking. After then, the wild-type CPC acylase, TnS5αβ and S12 CPC acylase mutants were purified from each culture broth according to the same method as described in Example <2-1>, respectively. The purified protein obtained above was subjected to dialysis with 50 mM phosphate buffer solution (pH 8.5), and the diffusate obtained by dialysis was used for a CPC conversion reaction.
After CPC was dissolved in 50 mM phosphate buffer solution (pH 8.5) at a final concentration of 50 mM, the purified enzyme solution dissolved in the same buffer solution was added to the CPC solution obtained above at a final concentration of 5 unit/mg to prepare […] of the reaction mixture. The reaction mixture was stirred at 25° C. for 1 hr to induce a CPC conversion reaction. At this time, in order to prevent pH of the reaction mixture from decreasing during the conversion reaction, when pH of the reaction mixture was reached to 8.4, 0.2 N NaOH solution was automatically injected to the reaction mixture by a pH regulator to constantly maintain pH of the reaction mixture at 8.5. 100 μl of the reaction mixture was taken from at a fixed time during the conversion reaction and immediately subjected to a HPLC analysis to quantify the amount of CPC and 7-ACA in the reaction mixture. […] In addition, the flow rate of mobile phase was 0.6 ml/min, the sample (20 μl) to be injected was prepared by appropriately diluting the reaction mixture with 50 mM phosphate buffer solution (pH 8.5), and its absorbance was detected at UV 250 nm.

Molecule	specific activity to CPC as % of that to GL-7-ACA [1]	specific activity to CPC ([1]; pH 8.0)	Relative activity to CPC (fold) ([1]; relative to wild-type)	CPC conversion rate [2] [%]	specific activity to CPC, fold higher than that of the wild-type CPC acylase ([1]; pH 8.5) [fold]	specific activity to CPC ([1]; pH of the reaction mixture 8.5) [unit/mg protein]	7-ACA yield [2] [%]
Wild-type: Pseudomonas sp. SE83 derived wild-type CPC acylase (AcyII), α-subunit SEQ ID NO: 4 and β-subunit SEQ ID NO: 5, from pBCPC (protein, Pseudomonas sp. SE83) alpha: TMAAKTDREALQAALPPLSGSLSIPGLSAPVRVQRDGWGIPHIKASGEADAYRALGFVHAQDRLFQMELTRRKALGRAAEWLGAEAAEADILVRRLGMEKVCRRDFEALGAEAKDMLRAYVAGVNAFLASGAPLPIEYGLLGAEPEPWEPWHSIAVMRRLGLLMGSVWFKLWRMLALPVVGAANALKLRYDDGGQDLLCIPPGVEAERLEADLAALRPAVDALLKAMGG beta: SNNWAVAPGRTATGRPILAGDPHRVFEIPGMYAQHHLACDRFDMIGLTVPGVPGFPHFAHNGKVAYCVTHAFMDIHDLYLEQFAEDGRTARFGNEFEPVAWRRDRIAVRGGADREFDIVETRHGPVIAGDPLEGAALTLRSVQFAETDLSFDCLTRMPGASTVAQLYDATRGWGLIDHNLVAGDVAGSIGHLVRARVPSRPRENGWLPVPGWSGEHEWRGWIPHEAMPRVIDPPGGLIVTANNRVVADDHPDYLCTDCHPPYRAERIMERLVASPAFAVDDAAAIHADTLSPHVGLLRARLEALGIQGSLPAEELRQTLIAWDGRMDAGSQAASAYNAFRRALTRLVTARSGLEQAIAHPFAAVPPGVSPQGQVWWAVPTLLRNDDAGMLKGWSWDEALSEALSVATQNLTGRGWGEEHRPRFTHPLSAQFPAWAALLNPVSRPIGGDGDTVLANGLVPSAGPEATYGALSRYVFDVGNWDNSRWVVFHGASGHPASPHYADQNAPWSDCAMVPMLYSWDRIAAEAVTSQELVPA	about 1.4%	about 0.33 unit/mg protein	1.0	60	–	–	–
S12: sixfold CPC acylase mutant, α-subunit SEQ ID NO: 7 and β-subunit SEQ ID NO: 8 (protein, alpha-subunit of mutatnt CPC acylase S12 protein; beta-subunit of mutatnt CPC acylase S12 protein) alpha: TMAAKTDREALQAALPPLSGSLSIPGLSAPVRVQRDGWGIPHIKASGEADAYRALGFVHAQDRLFQMELTRRKALGRAAEWLGAEAAEADILVRRLGMEKVCRRDFEALGAEAKDMLRAYAAGVNAFLASGAPLPIEYSLLGAEPEPWEPWHSIAVMRRLGLLMGSVWFKLWRMLALPVVGAANALKLRYDDGGQDLLCIPPGVEAERLEADLAALRPAVDALLKAMGG beta: SNNWAVAPGRTATGRPILAGDPHRVFEIPGMYAQHHLACDRFDMIGLTVPGVPGFPHNAHNGKVAYCVTHAFMDTHDLYLEQFAEDGRTARFGNEFEPVAWRRDRIAVRGGADREFDIVETRHGPVIAGDPLEGAALTLRSVQFAETDLSFDCLTRMPGASTVAQLYDATRGWGLVDHNLVAGDVAGSIGHLVRARVPSRPRENGWLPVPGWSGEHEWRGWIPHEAMPRVIDPPGGLIVTANNRVVADDHPDYLCTDCHPPYRAERIMERLVASPAFAVDDAAAIHADTLSPHVGLLRARLEALGIQGSLPAEELRQTLIAWDGRMDAGSQAASAYNAFRRALTRLVTARSGLEQAIAHPFAAVPPGVSPQGQVWWAVPTLLRNDDAGMLKGWSWDEALSEALSVATQNLTGRGWGEEHRPRFTHPLSAQFPAWAALLNPVSRPIGGDGDTVLANGLVPSAGPEATYGALCRYVFDVGNWDNSRWVVFHGASGHPASPHYADQNAPWSDCAMVPMLYSWDRIAAEAVTSQELVPA	–	–	–	98	8.5	5.8	≥ 90
